First the molecules themselves.
B1: Compound 66: GLP-1/FGF21 fusion polypeptide SEQ ID NO: 163 conjugated with Moiety B at 51C and 225C (conjugate)
chain: HGEGTFTSDVSSYLEEQAAKEFIAWLVKGGGGSAPGSPAGSPTGSAPGSPCHPIPDSSPLLQFGGQVRQRYLYTDDAQQTEAHLEIREDGTVGGAADQSPESLLQLKALKPGVIQILGVKTSRFLCQRPDGALYGSLHFDPEACSFRELLLEDGYNVYQSEAHGLPLHLPGQKSPHRDPAPRGPARFLPLPGLPPALPEPPGILAPQPPDVGSSDPLSLVGGSQCRSPSYES
modifications: Moiety B conjugated at C51 and C225
B2: Compound 71: GLP-1/FGF21 fusion polypeptide SEQ ID NO: 168 conjugated with Moiety B at 52C and 282C (conjugate)
chain: HGEGTFTSDVSSYLEEQAAKEFIAWLVKGGGGAQPGAQPGAQPGAQPGAQPCQAPGAQPGAQPGAQPGAQPGAQPGAQPGAQPGAQPGAQPGAQPGAQPGAQPGAQPGAQPHPIPDSSPLLQFGGQVRQRYLYTDDAQQTEAHLEIREDGTVGGAADQSPESLLQLKALKPGVIQILGVKTSRFLCQRPDGALYGSLHFDPEACSFRELLLEDGYNVYQSEAHGLPLHLPGQKSPHRDPAPRGPARFLPLPGLPPALPEPPGILAPQPPDVGSSDPLSLVGCSQGRSPSYES
modifications: Moiety B conjugated at C52 and C282
B3: Compound 73: GLP-1/FGF21 fusion polypeptide SEQ ID NO: 170 conjugated with Moiety B at 42C and 282C (conjugate)
chain: HGEGTFTSDVSSYLEEQAAKEFIAWLVKGGGGAQPGAQPGQCPGAQPGAQPGAQPGAQPGAQPGAQPGAQPGAQPGAQPGAQPGAQPGAQPGAQPGAQPGAQPGAQPGAQPHPIPDSSPLLQFGGQVRQRYLYTDDAQQTEAHLEIREDGTVGGAADQSPESLLQLKALKPGVIQILGVKTSRFLCQRPDGALYGSLHFDPEACSFRELLLEDGYNVYQSEAHGLPLHLPGQKSPHRDPAPRGPARFLPLPGLPPALPEPPGILAPQPPDVGSSDPLSLVGCSQGRSPSYES
modifications: Moiety B conjugated at C42 and C282
B4: Compound 72: GLP-1/FGF21 fusion polypeptide SEQ ID NO: 169 conjugated with Moiety B at 62C and 282C (conjugate)
chain: HGEGTFTSDVSSYLEEQAAKEFIAWLVKGGGGAQPGAQPGAQPGAQPGAQPGAQPGAQPGQCPGAQPGAQPGAQPGAQPGAQPGAQPGAQPGAQPGAQPGAQPGAQPGAQPHPIPDSSPLLQFGGQVRQRYLYTDDAQQTEAHLEIREDGTVGGAADQSPESLLQLKALKPGVIQILGVKTSRFLCQRPDGALYGSLHFDPEACSFRELLLEDGYNVYQSEAHGLPLHLPGQKSPHRDPAPRGPARFLPLPGLPPALPEPPGILAPQPPDVGSSDPLSLVGCSQGRSPSYES
modifications: Moiety B conjugated at C62 and C282

The nature of this assay: Body weight reduction in C57BL/6 mice, daily subcutaneous dosing. The following applies: male C57BL/6 mice, 30 nmol/kg subcutaneously everyday, Day 11. It counts as in vivo. The protocol:
FIGS. 1A-1F show in vivo activities of fusion protein conjugates. […] Body weight was measured daily. […] Compared to Vehicle control: ***, p<0.001. All data are expressed as mean values and standard error (SEM).
10 week old male C57BL/6 mice were injected everyday subcutaneously with 30 nmol/kg exemplary fusion protein conjugates for 10 or 14 days (n=5). Body weight was daily monitored for each individual animal. Day 1 and Day 10 (or Day 14) are first day and last day of molecule dosage. % BW loss=100*(BW on Day n-BW on Day 1)/(BW on Day 1). Data are indicated as mean values and standard error (SEM) or pooled values. Statistical analysis was performed by One-way ANOVA. Body weight reduction on Day 11 in Table 5 is calculated by −1*(% BW loss−% BW loss of vehicle group).
B1: the “Body weight reduction at 30 nmol/kg (% reduction compared to vehicle)(Day11)” value is given as 18.9%.
Turning to B2, the “Body weight reduction at 30 nmol/kg (% reduction compared to vehicle)(Day11)” value is recorded as 24.5%.
For B3, the “Body weight reduction at 30 nmol/kg (% reduction compared to vehicle)(Day11)” value is on record as 20.2%.
The result for B4 reads 25.8%.

For the origin of these results see patent US11510990B2, “Conjugates of fusion proteins of GLP-1 and FGF21” (BEIJING QL BIOPHARMACEUTICAL CO., LTD., priority 2020, dated 2022).
